Here are results for 1 molecule from PMC3032569 (The Biochemical journal, 2009).

In the assay the target is T1, E. coli TonB C-terminal domain (TonB CTD, residues 103-239) (E. coli, UniProt P02929 103-239).
T1 sequence (looked up): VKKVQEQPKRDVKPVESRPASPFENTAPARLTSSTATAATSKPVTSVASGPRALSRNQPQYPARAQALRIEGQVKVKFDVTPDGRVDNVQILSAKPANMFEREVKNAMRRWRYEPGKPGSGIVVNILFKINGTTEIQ
The experiment in a line: NMR titration.

Where no end group is shown, it is not given here.

In the case of Ac-EDTITVTAAP [FhuA TonB box peptide], the binding result was “binds”.
